The results in this text go back to US20230124669A1 (ADAGENE, published 2023).

The target of assay [1] is T1, Human PDL1 (SPR analyte) (human, UniProt Q9NZQ7 19-238, limits assumed).
T1 construct: also called PDL1H
The assay can be described thus: SPR (Biacore T200), antibody captured by anti-human IgG on CM5 chip, antigen injected as analyte, 1:1 Langmuir fit. The protocol:
(§1) Biacore T200 (GE Healthcare) was used as a high performance system for real-time biomolecular interaction analysis, using surface plasmon resonance technology (“SPR”). During the measurement, anti-human IgG monoclonal antibody from the Human Antibody Capture Kit provided by Biacore was immobilized on CM5 chips, and IgG sample was injected onto sensor chip. Analytes were injected onto IgG captured flow cell for binding kinetic analysis in HBS-EP buffer.
On the technique in general: SPR reads the build-up and loss of mass on a sensor chip optically.

The target in assay [2] is T2, Human CD137 (SPR analyte) (human, UniProt Q07011 24-186, limits assumed).
T2 construct: also called CD137H
The description is as above. The protocol: as §1

In general, Kd refers to the concentration at which binding is half-saturated.

T1 sequence (Q9NZQ7 19-238 limits assumed): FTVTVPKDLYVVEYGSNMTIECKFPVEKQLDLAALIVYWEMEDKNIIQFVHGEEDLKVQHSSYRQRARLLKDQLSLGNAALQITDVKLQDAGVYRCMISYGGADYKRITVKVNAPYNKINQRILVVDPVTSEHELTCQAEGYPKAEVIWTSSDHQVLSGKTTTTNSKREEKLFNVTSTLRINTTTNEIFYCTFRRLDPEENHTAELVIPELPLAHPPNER

B1: TY22176 (bispecific antibody, human IgG1, kappa, N297A)
heavy: DIQLTQSPSSLSASVGDRVTITCRASQSIPSFLNWYQQKPGKAPKLLIYAASSLQSGVPSRFSGSGSGTDFTLTISSLQPEDFATYYCQHYISWPRQFTFGQGTKVEIKRTVAAPSVFIFPPSDEQLKSGTASVVCLLNNFYPREAKVQWKVDNALQSGNSQESVTEQDSKDSTYSLSSTLTLSKADYEKHKVYACEVTHQGLSSPVTKSFNRGEC
light: EVQLVESGGGLVQPGGSLRLSCAASGYSISSGYYWGWIRQAPGKGLEWIGIIYPSGGGTNYAQKFQGRVTISRDNSKNTLYLQLNSLRAEDTAVYYCARGGGLGFDYWGQGTLVTVSSASTKGPSVFPLAPSSKSTSGGTAALGCLVKDYFPEPVTVSWNSGALTSGVHTFPAVLQSSGLYSLSSVVTVPSSSLGTQTYICNVNHKPSNTKVDKRVEPKSCDKTHTCPPCPAPELLGGPSVFLFPPKPKDTLMISRTPEVTCVVVDVSHEDPEVKFNWYVDGVEVHNAKTKPREEQYASTYRVVSVLTVLHQDWLNGKEYKCKVSNKALPAPIEKTISKAKGQPREPQVYTLPPSREEMTKNQVSLTCLVKGFYPSDIAVEWESNGQPENCYKTTPPVLDCDGSFFLYSKLTVDKSRWQQGNVFSCSVMHEALHNHYTQKSLSLSPGSGGGSEVQLVESGGGLVQPGGSLRLSCAASGFSLSTGGVGVGWIRQAPGKCLEWLALIDWADDKYYSPSLKSRLTISRDNSKNTLYLQLNSLRAEDTAVYYCARGGSDTVIGDWFAYWGQGTLVTVSSGGGGSGGGGSGGGGSGGGGSDIQLTQSPSSLSASVGDRVTITCRASQSIGSYLAWYQQKPGKAPKLLIYDASNLETGVPSRFSGSGSGTDFTLTISSLQPEDFATYYCQQGYYLWTFGCGTKVEIKR
notes: Morrison format: anti-PDL1 Fab, anti-CD137 scFv; IgG1 with N390C:S400'C and N297A; also called PDL1 × CD137 bispecific antibody, format TYF04
Consider B1, for which the Kd in assay [1] is 8.1 nM; in assay [2] it was 7.1 nM.

B2: TY22165 (bispecific antibody, human IgG4 S228P, kappa)
heavy: DIQLTQSPSSLSASVGDRVTITCRASQSIPSFLNWYQQKPGKAPKLLIYAASSLQSGVPSRFSGSGSGTDFTLTISSLQPEDFATYYCQHYISWPRQFTFGQGTKVEIKRTVAAPSVFIFPPSDEQLKSGTASVVCLLNNFYPREAKVQWKVDNALQSGNSQESVTEQDSKDSTYSLSSTLTLSKADYEKHKVYACEVTHQGLSSPVTKSFNRGEC
light: EVQLVESGGGLVQPGGSLRLSCAASGYSISSGYYWGWIRQAPGKGLEWIGIIYPSGGGTNYAQKFQGRVTISRDNSKNTLYLQLNSLRAEDTAVYYCARGGGLGFDYWGQGTLVTVSSASTKGPSVFPLAPCSRSTSESTAALGCLVKDYFPEPVTVSWNSGALTSGVHTFPAVLQSSGLYSLSSVVTVPSSSLGTKTYTCNVDHKPSNTKVDKRVESKYGPPCPPCPAPEFLGGPSVFLFPPKPKDTLMISRTPEVTCVVVDVSQEDPEVQFNWYVDGVEVHNAKTKPREEQFNSTYRVVSVLTVLHQDWLNGKEYKCKVSNKGLPSSIEKTISKAKGQPREPQVYTLPPSQEEMTKNQVSLTCLVKGFYPSDIAVEWESNGQPENCYKTTPPVLDCDGSFFLYSRLTVDKSRWQEGNVFSCSVMHEALHNHYTQKSLSLSLGSGGGSEVQLVESGGGLVQPGGSLRLSCAASGFSLSTGGVGVGWIRQAPGKCLEWLALIDWADDKYYSPSLKSRLTISRDNSKNTLYLQLNSLRAEDTAVYYCARGGSDTVIGDWFAYWGQGTLVTVSSGGGGSGGGGSGGGGSGGGGSDIQLTQSPSSLSASVGDRVTITCRASQSIGSYLAWYQQKPGKAPKLLIYDASNLETGVPSRFSGSGSGTDFTLTISSLQPEDFATYYCQQGYYLWTFGCGTKVEIKR
notes: Morrison format: anti-PDL1 Fab, anti-CD137 scFv; IgG4(S228P) with N390C:S400'C; also called PDL1 × CD137 bispecific antibody, format TYF07
Turning to B2, the dissociation constant (Kd) in assay [1] is 7.7 nM; in assay [2], 5.2 nM.

B3: TY22177 (bispecific antibody, human IgG1, kappa, N297A)
heavy: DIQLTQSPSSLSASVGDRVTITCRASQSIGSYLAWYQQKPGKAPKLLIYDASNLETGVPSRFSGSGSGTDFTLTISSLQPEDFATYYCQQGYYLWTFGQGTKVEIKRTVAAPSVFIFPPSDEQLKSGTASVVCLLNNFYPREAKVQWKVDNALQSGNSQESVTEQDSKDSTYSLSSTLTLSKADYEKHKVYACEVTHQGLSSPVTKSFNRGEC
light: EVQLVESGGGLVQPGGSLRLSCAASGFSLSTGGVGVGWIRQAPGKGLEWLALIDWADDKYYSPSLKSRLTISRDNSKNTLYLQLNSLRAEDTAVYYCARGGSDTVIGDWFAYWGQGTLVTVSSASTKGPSVFPLAPSSKSTSGGTAALGCLVKDYFPEPVTVSWNSGALTSGVHTFPAVLQSSGLYSLSSVVTVPSSSLGTQTYICNVNHKPSNTKVDKRVEPKSCDKTHTCPPCPAPELLGGPSVFLFPPKPKDTLMISRTPEVTCVVVDVSHEDPEVKFNWYVDGVEVHNAKTKPREEQYASTYRVVSVLTVLHQDWLNGKEYKCKVSNKALPAPIEKTISKAKGQPREPQVYTLPPSREEMTKNQVSLTCLVKGFYPSDIAVEWESNGQPENCYKTTPPVLDCDGSFFLYSKLTVDKSRWQQGNVFSCSVMHEALHNHYTQKSLSLSPGSGGGSEVQLVESGGGLVQPGGSLRLSCAASGYSISSGYYWGWIRQAPGKCLEWIGIIYPSGGGTNYAQKFQGRVTISRDNSKNTLYLQLNSLRAEDTAVYYCARGGGLGFDYWGQGTLVTVSSGGGGSGGGGSGGGGSGGGGSDIQLTQSPSSLSASVGDRVTITCRASQSIPSFLNWYQQKPGKAPKLLIYAASSLQSGVPSRFSGSGSGTDFTLTISSLQPEDFATYYCQHYISWPRQFTFGCGTKVEIKR
notes: Morrison format: anti-CD137 Fab, anti-PDL1 scFv; IgG1 with N390C:S400'C and N297A; also called CD137 × PDL1 bispecific antibody, format TYF04
As to B3, the values for the Kd in assay [1] and in assay [2] were 33.4 nM and 7 nM, respectively.

B4: TY22362 (bispecific antibody, human IgG4 S228P, kappa)
heavy: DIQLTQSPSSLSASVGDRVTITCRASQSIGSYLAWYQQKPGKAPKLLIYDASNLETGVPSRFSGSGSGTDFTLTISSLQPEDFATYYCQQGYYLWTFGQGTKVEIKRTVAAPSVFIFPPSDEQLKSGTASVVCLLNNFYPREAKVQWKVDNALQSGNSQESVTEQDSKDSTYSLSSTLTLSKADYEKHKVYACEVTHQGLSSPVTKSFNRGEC
light: EVQLVESGGGLVQPGGSLRLSCAASGFSLSTGGVGVGWIRQAPGKGLEWLALIDWADDKYYSPSLKSRLTISRDNSKNTLYLQLNSLRAEDTAVYYCARGGSDTVIGDWFAYWGQGTLVTVSSASTKGPSVFPLAPCSRSTSESTAALGCLVKDYFPEPVTVSWNSGALTSGVHTFPAVLQSSGLYSLSSVVTVPSSSLGTKTYTCNVDHKPSNTKVDKRVESKYGPPCPPCPAPEFLGGPSVFLFPPKPKDTLMISRTPEVTCVVVDVSQEDPEVQFNWYVDGVEVHNAKTKPREEQFNSTYRVVSVLTVLHQDWLNGKEYKCKVSNKGLPSSIEKTISKAKGQPREPQVYTLPPSQEEMTKNQVSLTCLVKGFYPSDIAVEWESNGQPENCYKTTPPVLDCDGSFFLYSRLTVDKSRWQEGNVFSCSVMHEALHNHYTQKSLSLSLGSGGGSGGGGSEVQLVESGGGLVQPGGSLRLSCAASGYSISSGYYWGWIRQAPGKCLEWIGIIYPSGGGTNYAQKFQGRVTISRDNSKNTLYLQLNSLRAEDTAVYYCARGGGLGFDYWGQGTLVTVSSGGGGSGGGGSGGGGSGGGGSDIQLTQSPSSLSASVGDRVTITCRASQSIPSFLNWYQQKPGKAPKLLIYAASSLQSGVPSRFSGSGSGTDFTLTISSLQPEDFATYYCQHYISWPRQFTFGCGTKVEIKR
notes: Morrison format: anti-CD137 Fab, anti-PDL1 scFv; also called CD137 × PDL1 bispecific antibody, format TYF08
As for B4, the dissociation constant (Kd) stood at 40.3 nM in assay [1] and 2.8 nM in assay [2].

B5: TY22166 (bispecific antibody, human IgG4 S228P, kappa)
heavy: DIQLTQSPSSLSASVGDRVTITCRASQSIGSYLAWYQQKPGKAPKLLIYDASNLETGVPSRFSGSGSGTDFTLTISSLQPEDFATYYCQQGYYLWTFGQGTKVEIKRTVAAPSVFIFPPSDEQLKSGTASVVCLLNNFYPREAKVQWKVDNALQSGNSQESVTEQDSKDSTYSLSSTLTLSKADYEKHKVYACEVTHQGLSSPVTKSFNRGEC
light: EVQLVESGGGLVQPGGSLRLSCAASGFSLSTGGVGVGWIRQAPGKGLEWLALIDWADDKYYSPSLKSRLTISRDNSKNTLYLQLNSLRAEDTAVYYCARGGSDTVIGDWFAYWGQGTLVTVSSASTKGPSVFPLAPCSRSTSESTAALGCLVKDYFPEPVTVSWNSGALTSGVHTFPAVLQSSGLYSLSSVVTVPSSSLGTKTYTCNVDHKPSNTKVDKRVESKYGPPCPPCPAPEFLGGPSVFLFPPKPKDTLMISRTPEVTCVVVDVSQEDPEVQFNWYVDGVEVHNAKTKPREEQFNSTYRVVSVLTVLHQDWLNGKEYKCKVSNKGLPSSIEKTISKAKGQPREPQVYTLPPSQEEMTKNQVSLTCLVKGFYPSDIAVEWESNGQPENCYKTTPPVLDCDGSFFLYSRLTVDKSRWQEGNVFSCSVMHEALHNHYTQKSLSLSLGSGGGSEVQLVESGGGLVQPGGSLRLSCAASGYSISSGYYWGWIRQAPGKCLEWIGIIYPSGGGTNYAQKFQGRVTISRDNSKNTLYLQLNSLRAEDTAVYYCARGGGLGFDYWGQGTLVTVSSGGGGSGGGGSGGGGSGGGGSDIQLTQSPSSLSASVGDRVTITCRASQSIPSFLNWYQQKPGKAPKLLIYAASSLQSGVPSRFSGSGSGTDFTLTISSLQPEDFATYYCQHYISWPRQFTFGCGTKVEIKR
notes: Morrison format: anti-CD137 Fab, anti-PDL1 scFv; IgG4(S228P) with N390C:S400'C; also called CD137 × PDL1 bispecific antibody, format TYF07
On to B5, for which the equilibrium dissociation constant (Kd) was found to be 42 nM in assay [1] and 3 nM in assay [2].

B6: TY22359 (bispecific antibody, human IgG1, kappa, N297A)
heavy: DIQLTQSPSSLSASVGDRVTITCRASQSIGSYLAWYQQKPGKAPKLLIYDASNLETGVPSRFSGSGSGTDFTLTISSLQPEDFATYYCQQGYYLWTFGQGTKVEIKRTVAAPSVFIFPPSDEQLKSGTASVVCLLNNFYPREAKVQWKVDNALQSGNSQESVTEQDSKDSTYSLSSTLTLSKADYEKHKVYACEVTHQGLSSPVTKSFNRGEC
light: EVQLVESGGGLVQPGGSLRLSCAASGFSLSTGGVGVGWIRQAPGKGLEWLALIDWADDKYYSPSLKSRLTISRDNSKNTLYLQLNSLRAEDTAVYYCARGGSDTVIGDWFAYWGQGTLVTVSSASTKGPSVFPLAPSSKSTSGGTAALGCLVKDYFPEPVTVSWNSGALTSGVHTFPAVLQSSGLYSLSSVVTVPSSSLGTQTYICNVNHKPSNTKVDKRVEPKSCDKTHTCPPCPAPELLGGPSVFLFPPKPKDTLMISRTPEVTCVVVDVSHEDPEVKFNWYVDGVEVHNAKTKPREEQYASTYRVVSVLTVLHQDWLNGKEYKCKVSNKALPAPIEKTISKAKGQPREPQVYTLPPSREEMTKNQVSLTCLVKGFYPSDIAVEWESNGQPENCYKTTPPVLDCDGSFFLYSKLTVDKSRWQQGNVFSCSVMHEALHNHYTQKSLSLSPGSGGGSGGGGSEVQLVESGGGLVQPGGSLRLSCAASGYSISSGYYWGWIRQAPGKCLEWIGIIYPSGGGTNYAQKFQGRVTISRDNSKNTLYLQLNSLRAEDTAVYYCARGGGLGFDYWGQGTLVTVSSGGGGSGGGGSGGGGSGGGGSDIQLTQSPSSLSASVGDRVTITCRASQSIPSFLNWYQQKPGKAPKLLIYAASSLQSGVPSRFSGSGSGTDFTLTISSLQPEDFATYYCQHYISWPRQFTFGCGTKVEIKR
notes: Morrison format: anti-CD137 Fab, anti-PDL1 scFv; also called CD137 × PDL1 bispecific antibody, format TYF05; Format 5
In the case of B6, the Kd worked out at 29.8 nM in assay [1] and 2.7 nM in assay [2].
